Results taken from patent US9549967B2, “Regulation of sodium channels by PLUNC proteins” (The University of North Carolina at Chapel Hill, priority 2009, dated 2017).

Columns and labels:
[1] = test system: trypsin; test: Cell-free fluorogenic assay of BGAR-MCA cleavage by trypsin; type: biochemical; settings: 50 ng/ml rSPLUNC1; 1.0 or 0.3 U/ml trypsin
Experimental: For cell-free assays, reactions were carried out in 50 μl Ringer in a 96 well plate format with 100 μM BGAR-MCA. To measure endogenous protease activity in human bronchial epithelial cultures, 30 μl Ringer with 100 μM BGAR-MCA were placed directly onto the mucosal surfaces of human bronchial epithelial cultures grown on 12 mm T-clear inserts and the cultures were assayed in 12 well plates.

[2] = biological target: T1, αENaC (Rattus norvegicus, UniProt P37089); test: Surface biotinylation of αENaC in Xenopus oocytes; type: cell-based; settings: coexpression with SPLUNC1 in oocytes
T1 construct: expressed in transfected cells; host or cells: Xenopus oocytes
T1 sequence (P37089 1-698): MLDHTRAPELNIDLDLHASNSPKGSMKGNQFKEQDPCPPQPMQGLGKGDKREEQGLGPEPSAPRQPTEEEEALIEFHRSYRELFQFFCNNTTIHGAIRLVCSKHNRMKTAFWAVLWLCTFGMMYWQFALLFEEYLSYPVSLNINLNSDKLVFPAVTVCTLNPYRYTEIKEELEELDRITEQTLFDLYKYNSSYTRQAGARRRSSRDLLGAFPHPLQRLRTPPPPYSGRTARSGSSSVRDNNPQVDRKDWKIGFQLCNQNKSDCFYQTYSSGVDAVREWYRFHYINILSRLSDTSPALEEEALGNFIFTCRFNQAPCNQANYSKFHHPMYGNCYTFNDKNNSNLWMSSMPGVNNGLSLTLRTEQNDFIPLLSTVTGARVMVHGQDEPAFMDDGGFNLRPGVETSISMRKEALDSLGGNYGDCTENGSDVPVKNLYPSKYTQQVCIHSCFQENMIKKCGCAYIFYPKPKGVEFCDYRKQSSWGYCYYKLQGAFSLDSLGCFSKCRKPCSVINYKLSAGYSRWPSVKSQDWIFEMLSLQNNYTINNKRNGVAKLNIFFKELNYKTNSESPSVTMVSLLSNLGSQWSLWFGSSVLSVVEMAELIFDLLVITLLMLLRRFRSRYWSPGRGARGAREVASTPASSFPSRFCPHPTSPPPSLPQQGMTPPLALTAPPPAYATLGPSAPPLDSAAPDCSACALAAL
T1 sequence (P37090 1-638 partner): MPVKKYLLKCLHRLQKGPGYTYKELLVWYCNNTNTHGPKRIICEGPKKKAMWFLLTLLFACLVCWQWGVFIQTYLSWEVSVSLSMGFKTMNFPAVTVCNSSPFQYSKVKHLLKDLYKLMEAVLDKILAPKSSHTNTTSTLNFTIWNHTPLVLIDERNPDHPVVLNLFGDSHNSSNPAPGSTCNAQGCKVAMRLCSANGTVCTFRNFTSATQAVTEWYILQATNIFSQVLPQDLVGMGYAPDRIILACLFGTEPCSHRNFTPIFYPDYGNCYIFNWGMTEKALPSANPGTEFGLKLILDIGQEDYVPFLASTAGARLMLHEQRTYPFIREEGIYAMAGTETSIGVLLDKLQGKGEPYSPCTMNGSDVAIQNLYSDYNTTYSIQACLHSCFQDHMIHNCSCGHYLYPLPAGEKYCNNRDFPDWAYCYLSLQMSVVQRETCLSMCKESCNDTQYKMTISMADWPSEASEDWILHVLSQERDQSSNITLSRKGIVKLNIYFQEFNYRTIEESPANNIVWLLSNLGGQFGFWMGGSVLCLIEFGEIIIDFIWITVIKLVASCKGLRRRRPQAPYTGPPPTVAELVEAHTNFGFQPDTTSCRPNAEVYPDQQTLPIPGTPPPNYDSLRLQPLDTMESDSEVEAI
T1 sequence (P37091 1-650 partner): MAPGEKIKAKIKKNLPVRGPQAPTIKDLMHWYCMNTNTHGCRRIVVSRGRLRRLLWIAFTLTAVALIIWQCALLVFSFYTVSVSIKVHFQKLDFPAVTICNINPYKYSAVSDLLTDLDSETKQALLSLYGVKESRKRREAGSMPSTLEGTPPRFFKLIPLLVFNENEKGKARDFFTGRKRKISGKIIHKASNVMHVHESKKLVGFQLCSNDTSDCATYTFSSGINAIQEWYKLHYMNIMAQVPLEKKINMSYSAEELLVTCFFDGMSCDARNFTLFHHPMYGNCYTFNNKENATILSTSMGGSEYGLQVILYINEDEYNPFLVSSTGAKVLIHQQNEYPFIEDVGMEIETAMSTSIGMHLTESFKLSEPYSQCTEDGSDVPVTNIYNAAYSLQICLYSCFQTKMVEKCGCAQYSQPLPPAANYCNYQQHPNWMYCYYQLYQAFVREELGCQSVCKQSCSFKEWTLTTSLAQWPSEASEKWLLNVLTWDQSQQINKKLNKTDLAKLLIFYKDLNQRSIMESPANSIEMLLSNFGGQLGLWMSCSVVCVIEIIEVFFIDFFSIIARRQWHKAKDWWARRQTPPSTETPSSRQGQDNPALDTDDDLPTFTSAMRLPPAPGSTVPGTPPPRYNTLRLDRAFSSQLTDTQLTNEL
Experimental: The effect of SPLUNC1 on the number of ENaC channels in the plasma membrane was tested by expressing SPLUNC1 and αENaC in Xenopus oocytes. After surface biotinylation of αENaC, total lysate was prepared and lysate from 3-4 eggs was separated on a 10% gel.

B1: SPLUNC1: human SPLUNC1, 256 amino acid secreted PLUNC protein (SEQ ID NO:1); rSPLUNC1 = V5/6His-tagged protein purified from HEK293 media (protein, listed as Homo sapiens)
chain: MFQTGGLIVFYGLLAQTMAQFGGLPVPLDQTLPLNVNPALPLSPTGLAGSLTNALSNGLLSGGLLGILENLPLLDILKPGGGTSGGLLGGLLGKVTSVIPGLNNIIDIKVTDPQLLELGLVQSPDGHRLYVTIPLGIKLQVNTPLVGASLLRLAVKLDITAEILAVRDKQERIHLVLGDCTHSPGSLQISLLDGLGPLPIQGLLDSLTGILNKVLPELVQGNVCPLVNEVLRGLDITLVHDIVNMLIHGLQFVIKV
modifications: V5/6His tag
notes: rSPLUNC1 = V5/6His-tagged protein purified from HEK293 media
Question: Which “effect on the ability of trypsin to cleave fluorogenic substrate BGAR-MCA” value [1] does the source give for B1 here?
Answer: The value was ~10%.

Question: And the “plasma membrane ENaC (surface biotinylation)” value [2]?
Answer: Its value is “decreased”.
